Laboratory results as given in US20180155451A1 (published 2018).
Numbering of substitutions follows the chain as printed.

B1: J142-z73/L180-k (antibody, human IgG4 S228P, kappa)
heavy: QVQLVQSGSELKKPGASVKVSCKASGYTFTDNNMDWVRQAPGQGLEWMGDINTRSGGSIYNEEFQDRVTMTIDKSTGTAYMELSSLRSEDTAVYYCARRRSYGYYHDEWGEGTLVTVSSASTKGPSVFPLAPCSRSTSESTAALGCLVKDYFPEPVTVSWNSGALTSGVHTFPAVLQSSGLYSLSSVVTVPSSSLGTKTYTCNVDHKPSNTKVDKRVESKYGPPCPPCPAPEFLGGPSVFLFPPKPKDTLMISRTPEVTCVVVDVSQEDPEVQFNWYVDGVEVHNAKTKPREEQFNSTYRVVSVLTVLHQDWLNGKEYKCKVSNKGLPSSIEKTISKAKGQPREPQVYTLPPSQEEMTKNQVSLTCLVKGFYPSDIAVEWESNGQPENNYKTTPPVLDSDGSFFLYSRLTVDKSRWQEGNVFSCSVMHEALHNRFTQESLSLSP
light: DIQMTQSPSSLSASVGDRVTITCKASRNIERNLAWYQQKPGQAPELLIYSASRKESGVPDRFSGSRYGTDFTLTISSLQPEDLATYYCQQYYSPPLTFGGGTKVEIKRTVAAPSVFIFPPSDEQLKSGTASVVCLLNNFYPREAKVQWKVDNALQSGNSQESVTEQDSKDSTYSLSSTLTLSKADYEKHKVYACEVTHQGLSSPVTKSFNRGEC
notes: also called homomeric antibody against FX
B2: J300-z107/L210-k (antibody, human IgG4 S228P, kappa)
heavy: B1 heavy with T69I, I72V, G77D, Y95H, R100K, H106L, K198Q, F295Y, R408K, F435Y
light: B1 light with L83I, Y92S
notes: Homomeric by-product in the culture medium of cells that express Q407-z106/J300-z107/L210-k; The H chain gene was made by linking z107 downstream of J300; also called homomeric antibody against FX

Columns and labels:
[1] = target: T1, Protein A (rProtein A Sepharose Fast Flow) (UniProt P38507 37-327); assay: Protein A affinity chromatography (rProtein A Sepharose Fast Flow); the species is 3.2% of the Protein G-purified control but is not found in the pH 3.6 or the pH 2.7 elution fraction (cation exchange analysis)
T1 construct: Bought chromatography resin
Protocol: (§1) CM filtered through ϕ0.22-μm filter was loaded onto rProtein A Sepharose Fast Flow column (GE Healthcare) equilibrated with D-PBS. Washes 1 and 2 and Elutions 1 and 2 shown in Table 76 were carried out (Elution 1 alone was performed for Q407-z106/J300-z107/L210-k). […] The quantity of CM to be loaded was adjusted in a way that the quantity of the loaded antibody is 20 mg/ml resine. Fractions eluted under each condition were collected and the components contained in each elution fraction were identified by cation exchange chromatography analysis. […] Samples purified by batchwise elution were used as controls.
(§2) The values represent the area of elution peak expressed in percentage.

[2] = target: T1, Protein A (rProtein A Sepharose Fast …); assay: Protein A affinity chromatography (rProtein A Sepharose Fast Flow); the species is 5.8% of the Protein G-purified control but is not found in the pH 3.6 elution fraction (cation exchange analysis)
Protocol: as §1, §2

Binder | binding result [1] | binding result [2]
B1 | no binding | 
B2 |  | no binding
